Changes are numbered by the printed parent chain.
B1: h3818G (antibody, V domains shown)
VH: EVQLLESGGGLVQPGGSLRLSCAASGFTFANYGMSWVRQAPGKGLEWVASVRSGGSRTYYSDNVKGRFTISRDNSKNTLYLQMNSLRAEDTAVYYCVRYDHYSGSSDYWGQGTLVTVSS
VL: DVVMTQSPLSLPVTLGEPASISCKSSQSLMDTDGKTYLNWLLQKPGQSPQRLIYKVSNRESGVPDRFSGSGSGTDFTLKISRVEAEDVGVYYCWQGTHFPRTFGQGTKVEIK
B2: h2927 (antibody, V domains shown)
VH: B1 VH with A30S, Y32F, G55S, S56G, S103T, S105T
VL: B1 VL with L15P, M30L, T32Y, E60D, T102S
B3: h49k3G (antibody, V domains shown)
VH: B1 VH with A30S, Y32F, S56G, S105T
VL: B1 VL with M30L, T32S, E60D
B4: h4917G (antibody, V domains shown)
VH: B1 VH with A30S, Y32F, S56G, S105T
VL: B1 VL with M30L, T32S, S57T, T102S
B5: h2727 (antibody, V domains shown)
VH: B1 VH with A30S, V51I, G55S, S56G
VL: B1 VL with L15P, M30L, T32Y, E60D, T102S
B6: h2731 (antibody, V domains shown)
VH: B1 VH with A30S, V51I, G55S, S56G
VL: B1 VL with M30L, T32Y, K55R, S57T, E60D, S61T, T102S
B7: h2926 (antibody, V domains shown)
VH: B1 VH with A30S, Y32F, G55S, S56G, S103T, S105T
VL: B1 VL with L15P, M30L, T32Y, E60D
B8: h4921G (antibody, V domains shown)
VH: B1 VH with A30S, Y32F, S56G, S105T
VL: B1 VL with M30L, T32S, K55R, S57T, E60D, S61T
B9: h2826 (antibody, V domains shown)
VH: B1 VH with A30S, Y32F, G55S, S56G, S105T
VL: B1 VL with L15P, M30L, T32Y, E60D
B10: h2929 (antibody, V domains shown)
VH: B1 VH with A30S, Y32F, G55S, S56G, S103T, S105T
VL: B1 VL with L15P, K24R, M30V, T32Y, K44R, E60D, T97S, T102S, F103Y

Assays:
Aβ1-42 fibrils (human) = assay: competition ELISA; plate coated with fibril Aβ42; competitor hBP-biotin; IC50 of test divided by IC50 of hBP
[1] = biological target: Aβ plaques in APPxPS1 mouse brain (human) (UniProt P05067); assay: in vivo target engagement; APPxPS1 mice dosed 3 mg/kg SC weekly for three weeks; anti-human IgG IHC of cerebral cortex, % stained area
[2] = biological target: Aβ plaques in APPxPS1 mouse brain (human) (UniProt P05067); assay: in vivo target engagement; APPxPS1 mice dosed 10 mg/kg SC weekly for three weeks; anti-human IgG IHC of cerebral cortex, % stained area

Sequence of Aβ1-42 fibrils (human) (peptide, as listed by the source): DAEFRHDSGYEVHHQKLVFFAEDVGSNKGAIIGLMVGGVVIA
Sequence of Aβ plaques in APPxPS1 mouse brain (human) (P05067 672-713): as the sequence (peptide, as listed by the source) above

Row | Binder | IC50 ratio (test:hBP) (Aβ1-42 fibrils (human)) | Plaque Binding (% ROI) [1] [% ROI] | Plaque Binding (% ROI) [2] [% ROI]
1 | B1 | 1.18 |  | 
2 | B2 | 1.6 |  | 
3 | B3 | 2.16 |  | 
4 | B4 | 2.69 |  | 
5 | B5 | 3.06 |  | 
6 | B6 |  | 0.07 | 0.079
7 | B7 | 0.99 |  | 
8 | B8 | 1.01 |  | 
9 | B9 | 1.1 |  | 
10 | B10 | 1.16 |  | 
